For 16 sequences, protein production results are on record in a protein production outcome set (Wang et al. 2014).

The nature of the series: label from the status in PepcDB records.
Regarding “MNILKMKKTGIFLGGVLFGTVGVKILSSDCVKKTCTRATAGALKVKDSVLETTTKIQENVEDILAEAKEINEQEDLSTSKVNVVQDTLKCEQEVLKTETIKTVEDTNSNSIKCEEIKDNVIEEKNSTCTTE”, the protein production result was “failed”.
For “MGTLWWNGTFFTMVHEGDQVEAVFTEDGKIVAIGTAEELRQRYSTRINQEMNCDGAYVYPLEHHHHHH”, the protein production result was “not failed”.
In the case of “MAEKRTVRPFAGTERRAKGWIQEAALRMLNNNLHPDVAERPDELIVYGGIGKAARNWECYEAIVDTLLRLENDETLLIQSGKPVAVFRTHPDAPRVLIANSNLVPAWATWDHFHELDKKGLIMYGQMTAGSWIYIGSQGIVQGTYETFAEVARQHFGGTLAGTITLTAGLGGMGGAQPLAVTMNGGVCLAIEVDPARIQRRIDTNYLDTMTDSLDAALEMAKQAKEEKKALSIGLVGNAAEVLPRLVETGFVPDVLTDQTSAHDPLNGYIPAGLTLDEAAELRARDPKQYIARAKQSIAAHVRAMLAMQKQGAVTFDYGNNIRQVAKDEGVDDAFSFPGFVPAYIRPLFCEGKGPFRWVALSGDPEDIYKTDEVILREFSDNERLCHWIRMAQKRIKFQGLPARICWLGYGERAKFGKIINDMVAKGELKAPIVIGRDHLDSGSVASPNRETEGMKDGSDAIADWPILNALLNAVGGASWVSVHHGGGVGMGYSIHAGMVIVADGTKEAEKRLERVLTTDPGLGVIRHADAGYELAIRTAKEKGIDMPMLK”, the protein production result is “not failed”.
For “SLQTSDVVIHRKENEGFGFVIISSLNRPESGSTITVPHKIGRIIDGSPADRCAKLKVGDRILAVNGQSIINMPHADIVKLIKDAGLSVTLRIIPQEELNSP” the value was “not failed”; for “MLVWEELREKALNKIYHDKEIGYLDPDILGFLLAFYRNRNDVYTQSSCSGRITIVDAEMPWDRKNSTIIFKNHLRITEQDLEDVLSKNQVRRLWLIVQGPIIHIYAKNIETGWDILKIAREAGFKHSGILATNQKGVLVELRTGIRMVHLLRESNTERVDKDKIKTLVNVCNEVLARGKQKMNLLKDLLSSSSNNSMELGKNSKLKTPI”, “not failed”.
As for “MGGAGLDNAQNVRNQTQNQTKPIHVSDRNEAFNRHNENEQFGYVRYQKEQFDGEQQKTPVMNREETAHMISSLTVQLPHIQDAATLVTDREALVVYKTDSKNRELTADQVKKTAASVIPRYYHVYISDNPNHMQSVENYSNLGSGSRDIREIMSGTIQEMKTSPQGSPVSENENANGETRQDMKIDRNDKNARLEHHHHHH”, the protein production result was “not failed”.
For “MNWAKFRETGSPEDTDMSSTPISSDTTAVSKVIDPNYVLMVADFFKAISPDESCNDFTSFDSFSVLFQNNTRALSIARGRVSCSVTVTPGISNFFKGLHGGAVASIAERVAMACVKTVVSEDKHLFIGELSMSYLSSAPISSELLVEGTVVRTGRNLSVVTVEFKIKETMKVTYLSRATFYHSPISKL” the value was “failed”; for “MGRKVRAYFVHLFTASGVAFAFLAMREVVRVDLDPRWVFGWLTLAVFIDAADGPLARLWDVKLYASRILGKTIDLIVDYLTFTFIPLTLVWRMDWLPGWDGLWVTLAMVASLLGFANTAAKQSQEGFFLGFPSYWNVVAYYVGLLAVEYGAVGAYVSLGSVLTLTVLTLVPVRFVYPNAAPTPWRAIVTVGGVAWLGLLLALLPTFPELPAWGGDWVLGVSFVYPAFYFGLSGWLDWTSRQS”, “failed”.
For “QVPILHRDADFLLRALQPDDFVRTSRYENANREHLAPWEPLRDPGYFSVDNARARTLLQVASMDEGEALLLLLLDPDDGEVLGRCSYTNIVRGVFQACHLGFSLAAAAQGRGLMARALRVANRYCFEQLGLHRIMASHLPRNARSERLLESLGFEKEGYARAYLKIAGVWEDHVLRALVDAPR” the value was “not failed”; for “MENLASPPDISFVIAAYNAADTIEAAVQSALDQRGVTLEVIVVDDRSADDTITFVEAIAAIDPRVRLLALEENRGPGGARNAGIEAATGRWIAVLDSDDVIRPERSACMMCRAEAANAAVAVDNLDVVYTDGRPMETMFPEEFLEERAVLTLEDFISSNILFRSTFNFGYMKPMFRRDFLNNEGLRFREDIRIGEDYILLASALAAGGLCVIEPKPGYIYNIREGSISRVLELHHVEAMMRADQEFLSHYTLLPAAMDAQQARARSLQLAHNFLTLVENIKRRSVLGALKTTIRDPAVLGHLRMPIAVRLRRLRDAMFAPAAKIQGLEHHHHHH”, “not failed”; for “MSDILKFSVVIPVYNGSNTVTRAVDSCLKQTTLPWEIIIVNDCSKDNTLDVLIENYQGNNIVKIYSLPKNSGVSVARNLGWDKATGDFIAFLDADDVWHPSKLEVLNELKHGYKDVSCIAHKYTENSLPEEKKIMPKCKILKFRHFLIRNYFNTSCLAVCKCIGERFNETMRYTEDHDLCLRIANKMNIYYIDLPLTSLGRPQLSKGGLSGNQWAMRKGEMKLYFHACKLRWWLFPCLPLFFLFSIAKHLLKLGMRCMK”, “failed”.
Regarding “MASGNAGDTACLPAMVQAASLTAQQLLQQHWGYPAFRPGQAEIVEAIAQGRDCLIIWPTGGGKSLCFQVPALLRSGLTIVVTPLIALIENQVADLQARGIAAACLHSQMAPRDRKAVLQKLPQLKLLYLAPETLLSTPLWSRLTEPTIAIAGLILDEAHCLLQWGESFRPTYLRLGAIRPALVRLGKPSFPIAAFTATAYPQEVARLSQILQLQQPQRHQRDPYRSNLVLAVKTVWTPRQRQNQLLDFLAKHQGQSGLIYLRSRRDCETWADRLRNRGYRCAAYHAGVSDRERRQIEQAWQTGSLPFAVCSSAFGMGIDKRDVRWVAHVHPPLLLSEYLQEVGRGGRDQQRAQGLTLVSEPSGWLDPSDRDRWQGFQQATQQQWEAAQRQAQQLPASGDLRSLASSNELDLALAYLQRLGQLQWLDPFRYRRRAIPTPRPAPRLDLQPLRQFLYSRDCRWRSLLQSFGSNHPTTWRCGHCDRCQTTG”, the protein production entry is given as “failed”.
For “MGQMFGVACIDEQSGIVGQAWNNNSVRYISIDEDAVITIQSGPVVGKVAVSNDKTLAYGATINGANTVYVYKKSQAWVPSRLSDISSGTDVWAVALNGDNQWLYYVTANGRLGRIEVDNPTHNEILFEHNDFSGGPFAYIAYSAFEDCFYVTTDKNKILKVWVKEDGTHAYEQINQNNTGTTDGFLADEAKFQYLRGLTIDEDGNIFVCQGDNSHVIRKIAYDENMEKRYVTTVLGTSTVHGTDDGSPDIALFNGPQDISYDGNGGYWIAMRYEPALRKYSIELEHHHHHH” the value was “failed”; for “MEKLSAIKKPDINVADAWEQYWNKTLVNSTPVLWDANVERAVVVDLPRFELLFNPELPLIDFACGNGTQTKFLSQFFPRVIGLDVSKSALEIAAKENTAANISYRLLDGLVPEQAAQIHSEIGDANIYMRTGFHHIPVEKRELLGQSLRILLGKQGAMYLIELGTGCIDFFNSLLEKYGQLPYELLLVMEHGIRPGIFTAEDIELYFPDFEILSQGEGLFQSIHKLPDGNYATPPAFWAVIKHR”, “not failed”; for “MTRRGWILFVALCVLWGIPYLLIKVAVRDLTPASLVFLRTATGAVLLLPFVLVRGNLRPVLARWRPIALFTFGEMAVPWLLLADAERHVTSSLAGLVIAATPLVGALASRLSAGHEPLGARRMSGLAVGLAGVVALLGLDLGRGDARAVAELAVVVIGYALAPRIVARRLSDLPALDVVAVSLAMCALAYAPFGIAQLPAALPPAEALGAVAGLGVLCTALAFTLFFQLIAEVGPVRATVVAYVNPAVAVAAGVTLLGEPFTVGTAVGFALILGGSWLATSGAAGRARTPAPASAPAAPGAVAPAAAERAG”, “failed”.
Take “MGDTKVETISRLAQWRIENFGPCSFKKSDPFKVGIWNWHLSIERNRYLSVRLFPELSRVSKEQPPVAKFVLRVSNVGPNRRFYISPVYEKLLRTTDDCVWHVDSSFHGRFTIDVEFLDLKICPVNGGEASPVWPTDATMQSISTQTTLKCLSRMLEESILTDVIIHTADGTLSAHKAILSASSTVFKSMFHHDLMEKESSTIHIDDMSRESCMALLSYLYGNITQEEFWKHRLALLGAANKYDITDLKAACEESLMEDINSSNVLERLQEAWLYQLEKLKKGCLMYLFDFGKIYDVREEISSFFRQADRELMLEMFQEVLSVWKPV”: the protein production entry is listed as “failed”.
